In PMC6086726:

Biological target: Type I-F Csy surveillance complex of Pseudomonas aeruginosa PA14 (Csy1-4 with crRNA) (Pseudomonas aeruginosa PA14) (UniProt Q02ML9)
Assay: SPR

Question: With “AcrIF4 (gene 37 from phage JBD26) (natural protein)” as the substance, how does the Kd read?
Answer: 400 nM
